The values below come from the supplement of paper PMC9233669.

Data set [1] relates to biotinyl-Trp-oxazolone. The experiment in a line: self-aminoacylation, catalytic enhancement (BWO) (fold over background); higher = more active; k-Seq, kA / k0A0; sequences stand for … in GGGAAUGGAUCCACAUCUACGAAUUC…UUCACUGCAGACUUGACGAAGCUG
The gist of the method:
(§1)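 Each biotinyl-aminoacyl-oxazolone, at 2–1250 μM, was incubated with mutagenized RNA pools (0.43 μM) carrying a 21-nt variable region. The 50 μL reactions contained HEPES/NaCl/KCl/MgCl2/CaCl2 buffer with 5% acetonitrile at pH 6.9–7.0 and ran for 90 minutes at room temperature. After streptavidin capture, RNA was measured by qPCR in triplicate and by Illumina sequencing, and catalytic enhancement was calculated as median kA over the uncatalyzed rate from a pseudo-first-order fit of per-sequence fraction reacted.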

Data set [2] has as its system biotinyl-Leu-oxazolone. Briefly: self-aminoacylation, catalytic enhancement (BLO) (fold over background); higher = more active; k-Seq, kA / k0A0; sequences stand for … in GGGAAUGGAUCCACAUCUACGAAUUC…UUCACUGCAGACUUGACGAAGCUG
The gist of the method: as §1

In data set [3] the test system is biotinyl-Ile-oxazolone. The experiment in a line: self-aminoacylation, catalytic enhancement (BIO) (fold over background); higher = more active; k-Seq, kA / k0A0; sequences stand for … in GGGAAUGGAUCCACAUCUACGAAUUC…UUCACUGCAGACUUGACGAAGCUG
The gist of the method:
as §1

In data set [4] the test system is biotinyl-Phe-oxazolone. The experiment in a line: self-aminoacylation, catalytic enhancement (BFO) (fold over background); higher = more active; k-Seq, kA / k0A0; sequences stand for … in GGGAAUGGAUCCACAUCUACGAAUUC…UUCACUGCAGACUUGACGAAGCUG
The gist of the method: as §1

The test system of data set [5] is biotinyl-Met-oxazolone. Briefly: self-aminoacylation, catalytic enhancement (BMO) (fold over background); higher = more active; k-Seq, kA / k0A0; sequences stand for … in GGGAAUGGAUCCACAUCUACGAAUUC…UUCACUGCAGACUUGACGAAGCUG
The gist of the method: as §1

In data set [6] the test system is biotinyl-Val-oxazolone. The experiment in a line: self-aminoacylation, catalytic enhancement (BVO) (fold over background); higher = more active; k-Seq, kA / k0A0; sequences stand for … in GGGAAUGGAUCCACAUCUACGAAUUC…UUCACUGCAGACUUGACGAAGCUG
The gist of the method:
as §1

This sample holds only a part of the variants without activity.

For the sequence “CUACUUCUAACAAUCGGUCUG [Fam1A.1 aminoacylation ribozyme variant]”, the self-aminoacylation in data set [1] came to 0.532; in data set [2], 0.585; in data set [3], 0.658; in data set [4], 0.785; in data set [5], 0.608; in data set [6], 0.693.

For “CCACACUUCCAGUAAUCGGUC [Fam1B.1 aminoacylation ribozyme variant]”, the self-aminoacylation was determined as 0.792 in data set [1]; 0.829 in data set [2]; 1.02 in data set [3]; 0.618 in data set [4]; 0.791 in data set [5]; 1.1 in data set [6].

On to “CCACACUCCAAGCAAUCGGUC [Fam1B.1 aminoacylation ribozyme variant]”, for which the self-aminoacylation in data set [1] was found to be 1.59; in data set [2], 0.855; in data set [3] it was 0.984; in data set [4] it was 2.6; in data set [5] it was 0.789; in data set [6], 1.08.

As for “AUUACCCUGGUCACCGAGUUA [Fam2.1 aminoacylation ribozyme variant]”, the self-aminoacylation in data set [1] stood at 2.34; in data set [2], 1.26; in data set [3], 1.64; in data set [4], 1.81; in data set [5], 1.52; in data set [6] it was 1.75.

With “AAUACCCGGGUCAUCGAGUGA [Fam2.1 aminoacylation ribozyme variant]”, the self-aminoacylation in data set [1] stood at 7.23; in data set [2] it was 6.7; in data set [3], 3.72; in data set [4], 34.7; in data set [5], 5.22; in data set [6] it was 3.64.

Turning to “AAGCUUGCUAAUCGUCGCAAG [Fam3.1 aminoacylation ribozyme variant]”, the self-aminoacylation in data set [1] came to 2.85; in data set [2] it was 1.65; in data set [3] it was 1.85; in data set [4], 2.14; in data set [5], 1.55; in data set [6], 1.45.

“CGACACUUCAAGCAUUCGGUC [Fam1B.1 aminoacylation ribozyme variant]”: the self-aminoacylation in data set [1] came out at 1.51; in data set [2] it was 1.55; in data set [3], 1.8; in data set [4], 3.31; in data set [5], 1.64; in data set [6], 1.99.

With “AAAUUUGCGAAUAGUCGCAAG [Fam3.1 aminoacylation ribozyme variant]”, the self-aminoacylation in data set [1] came to 1.54; in data set [2], 1.33; in data set [3] it was 1.71; in data set [4], 1.99; in data set [5], 1.59; in data set [6], 1.56.

“CCACACUUCAUGCAAUAGGUC [Fam1B.1 aminoacylation ribozyme variant]”: the self-aminoacylation in data set [1] came to 0.467; in data set [2], 0.637; in data set [3], 0.711; in data set [4], 1.03; in data set [5], 0.582; in data set [6], 0.834.

In the case of “CUACUUCACACAAGCGGUCUG [Fam1A.1 aminoacylation ribozyme variant]”, the self-aminoacylation in data set [1] was 1.01; in data set [2], 0.817; in data set [3] it was 1.03; in data set [4], 0.75; in data set [5] it was 0.816; in data set [6] it was 0.993.

Turning to “AUUAUCGUGGUCAUCGAGUGA [Fam2.1 aminoacylation ribozyme variant]”, the self-aminoacylation in data set [1] was found to be 5.66; in data set [2], 4.54; in data set [3] it was 2.83; in data set [4] it was 27.7; in data set [5] it was 4.44; in data set [6], 3.25.

As to “CUUACCCUGGUCAUCGAGUGU [Fam2.1 aminoacylation ribozyme variant]”, the self-aminoacylation in data set [1] worked out at 25.6; in data set [2] it was 24.6; in data set [3], 8.72; in data set [4] it was 102; in data set [5] it was 26.4; in data set [6], 9.84.

In the case of “AUUCACCUAGGUCCACGGGUG [Fam2.2 aminoacylation ribozyme variant]”, the self-aminoacylation stood at 6.34 in data set [1]; 9.94 in data set [2]; 3.85 in data set [3]; 48.5 in data set [4]; 7.25 in data set [5]; 4.27 in data set [6].

With “CUACUUCAAACUAUCGAUCUG [Fam1A.1 aminoacylation ribozyme variant]”, the self-aminoacylation is 0.369 in data set [1]; 0.596 in data set [2]; 0.736 in data set [3]; 0.945 in data set [4]; 0.57 in data set [5]; 0.728 in data set [6].

With “AUUCACCUGGGACAUCGGGUG [Fam2.2 aminoacylation ribozyme variant]”, the self-aminoacylation in data set [1] stood at 5.11; in data set [2] it was 6.71; in data set [3] it was 4.15; in data set [4], 55.4; in data set [5] it was 7.06; in data set [6], 4.3.

Take “AUUCGCCUAGGUCAUCGGGUU [Fam2.2 aminoacylation ribozyme variant]”: the self-aminoacylation worked out at 10.8 in data set [1]; 20.5 in data set [2]; 8.6 in data set [3]; 75.6 in data set [4]; 14.1 in data set [5]; 7.13 in data set [6].

Regarding “CUACUUCAAACAUUCGGUAUG [Fam1A.1 aminoacylation ribozyme variant]”, the self-aminoacylation in data set [1] is 0.924; in data set [2] it was 1.05; in data set [3], 0.968; in data set [4], 0.64; in data set [5], 0.993; in data set [6], 1.12.

“CCAAACUUCAAGCAAUCGGUG [Fam1B.1 aminoacylation ribozyme variant]”: the self-aminoacylation in data set [1] was determined as 6.12; in data set [2] it was 8.21; in data set [3], 4.67; in data set [4], 32.4; in data set [5], 5.65; in data set [6] it was 4.43.

Take “AUUACCCUGGUGAUCGAGUGA [Fam2.1 aminoacylation ribozyme variant]”: the self-aminoacylation in data set [1] is 5.95; in data set [2], 5.14; in data set [3], 2.56; in data set [4], 25.1; in data set [5] it was 5.19; in data set [6], 2.69.

As for “AUUACCCUGCUCAUCGACUGA [Fam2.1 aminoacylation ribozyme variant]”, the self-aminoacylation in data set [1] is 0.534; in data set [2], 0.475; in data set [3], 0.856; in data set [4], 0.34; in data set [5], 0.687; in data set [6] it was 0.82.

For the sequence “AGUACCCUGGGCAUCGAGUGA [Fam2.1 aminoacylation ribozyme variant]”, the self-aminoacylation in data set [1] was found to be 7.71; in data set [2] it was 6.54; in data set [3], 2.96; in data set [4] it was 47; in data set [5], 6.28; in data set [6], 3.16.

With “AUUCACCUAGGUCAUUGGGAG [Fam2.2 aminoacylation ribozyme variant]”, the self-aminoacylation is 1.16 in data set [1]; 1.07 in data set [2]; 1.15 in data set [3]; 0.946 in data set [4]; 1.05 in data set [5]; 0.991 in data set [6].

In the case of “CCUCACUUCAAGCAAUCGGUA [Fam1B.1 aminoacylation ribozyme variant]”, the self-aminoacylation was found to be 1.57 in data set [1]; 1.22 in data set [2]; 1.05 in data set [3]; 1.91 in data set [4]; 1.51 in data set [5]; 1.11 in data set [6].
